From patent US9939430B2, “Platelet analysis” (Dublin City University, priority 2008, dated 2018)
Entries after “also recorded” stand apart in the source; their conditions may differ.

Columns and labels:
platelets = assay: Platelet adhesion from whole blood on protein patterned surfaces (percentage of filled dots); format: cell-based, human; settings: 2 μm dots array, four normal donors
Protocol: For the fabrication of protein patterns, specific platelet adhesive proteins or platelet antibodies were directly patterned on bare glass substrates by microcontact printing (FIG. 1a). After protein patterning the rest of the glass substrate was blocked with bovine serum albumin (BSA) to avoid non specific capture in non selected areas. Characterization of the protein pattern was carried out by immunofluorescence to assure good homogenous coverage of the protein pattern FIG. 14(ii) along all the patterned area. Samples were incubated with 1 mL of citrated or hirudinised whole blood for a maximum of 30 minutes.
The same blood sample exposed to a number of identical substrates gave small deviations; lower than 10%, in the platelet adhesion (FIG. 4b). We have quantified the platelet adhesion from whole blood on fibrinogen, vWF and anti-CD42b surfaces for four different normal donors. […]
The probability that a platelet is captured on a single spot depends on the probability that the platelet touches the protein spot, and on the binding affinity of the platelet for the protein matrix. […] We calculated the mean platelet adhesion on antibody, fibrinogen and vWF patterned surfaces on 2 μm and 6 μm dots arrays. […] A mean platelet adhesion of 45%, 10% and 15% were calculated for the antibody, the fibrinogen and the vWF surfaces, respectively. […]

[1] = target: T1, platelet fibrinogen receptor αIIbβ3 (GPIIb/IIIa) (Homo sapiens, UniProt P05106+P08514); assay: Platelet adhesion to fibrinogen patterned substrate, whole blood preincubated with abciximab in vitro; format: cell-based
T1 construct: incubation of whole blood with different doses of abciximab (Reopro®); endogenous in cells; host or cells: platelets in donor whole blood
Text: The single platelet counting method enables high resolution and reproducible platelet adhesion and function assays in contrast with fluorescence measurements of platelet adhesion. The drug abciximab inhibits platelet adhesion to fibrinogen. […] We compare this platelet adhesion quantification method with a classical method which consists on the measure of the fluorescence intensity originated by the platelets adhering to the surface (which have been fluorescently labelled after adhesion took place). […] Subsequently the samples were washed with buffers, fixed and labelled using platelet specific antibodies fluorescently labelled. After the samples were mounted on microscopy glass slides and imaged. (i)-(iii) show single platelet arrays formed on 6 micron fibrinogen dots array; (iv)-(vi) show platelets adhering to 12 micron fibrinogen dots array; (vii)-(ix) show platelets adhering to 24 micron fibrinogen dots array. […] It is more difficult to quantify the number of platelets adhering to the 12 or 24 micron fibrinogen dots. The effect of the drug in platelet adhesion was quantified using two methods, single platelet counting method, and fluorescence method. (B) Graphs showing the fluorescence intensity measured on samples incubated with blood samples preincubated with different doses of abxicimab (x axes units: abciximab concentration (g/mL); y axes units: fluorescence, arbitrary units). (C) Graph showing the percentage of filled (occupied by platelets) dots on 6 microns fibrinogen dots array on samples incubated with blood samples preincubated with different doses of abxicimab (x axes units: abciximab concentration (g/mL); y axes units: percentage of 6 micron fibrinogen dots occupied by platelets).
In parallel flow cytometry is used to quantify the inhibition of fibrinogen-platelet binding resulting from incubation of whole blood with different doses of abciximab (Reopro®). To perform the measurements by flow cytometry, platelets were pre-activated with thrombin-receptor-activating peptide. […]

GP Ilb/IIIa receptor = target: T2, GP Ilb/IIIa receptor (Homo sapiens, UniProt P05106+P08514); assay: Platelet adhesion on fibrinogen patterned substrate in PCI patients before and after Reopro administration; format: in vivo; settings: for platelet adhesion after administration: 0.25 mg/kg dose during PCI
T2 construct: blood samples from 10 cardiovascular patients undergoing Percutaneous Coronary Interventions (PCI); endogenous in cells; host or cells: platelets in blood of PCI patients
Protocol: The above in-vitro results were validated in a small-scale, targeted clinical study conducted at the Clinical Research Centre in Beaumont Hospital. The same protein patterned substrate was tested with blood samples from 10 cardiovascular patients undergoing Percutaneous Coronary Interventions (PCI). Three patients who received a 0.25 mg/kg dose of Reopro® during the procedure had their platelet adhesion measured using the method of the present invention before Reopro® administration (image i of FIG. 10), 10 minutes after Reopro® administration (image ii of FIG. 10), and between 20 and 24 hours after Reopro® administration (image iii of FIG. 10).
Multiple fluorescent dots on the grid indicates presence of adhering platelets (i).

Row | inhibition of platelet adhesion in CVD patients compared to the diabetic patients ([1]; in vitro, 1.5 μg/ml Reopro, CVD patients on aspirin and clopidogrel vs type 2 diabetes patients on aspirin) | platelet adhesion after administration (GP Ilb/IIIa receptor; 20-24 hours after administration) | platelet adhesion after administration (fluorescence images, one subject) (GP Ilb/IIIa receptor; 21 h after administration) | Substance | mean platelet adhesion (platelets) | platelet adhesion to the fibrinogen substrate after abciximab treatment ([1]; blood preincubated with abciximab (20 μg/mL), 2 and 6 μm dot arrays) | Reopro's effects on platelet adhesion across population groups ([1]; in vitro, 1.5 μg/ml Reopro, normal donors, CVD patients, diabetic patients) | platelet adhesion after administration (GP Ilb/IIIa receptor; 10 minutes after administration, listed as Reopro®, 0.25 mg/kg)
1 | – | – | – | fibrinogen | 10% | – | – | –
2 | increased inhibition | increasing adhesion | recovery of adhesiveness | abciximab | – | do not adhere to the fibrinogen substrate | effects appear greater in CVD patients than in normal or diabetic patients | low adhesion; also recorded: limited platelet adhesion
3 | – | – | – | von Willebrand factor [vWF] | 15% | – | – | –
